T1: zcyto20 (Homo sapiens, UniProt Q8IZJ0)
T1 sequence (Q8IZJ0 26-200): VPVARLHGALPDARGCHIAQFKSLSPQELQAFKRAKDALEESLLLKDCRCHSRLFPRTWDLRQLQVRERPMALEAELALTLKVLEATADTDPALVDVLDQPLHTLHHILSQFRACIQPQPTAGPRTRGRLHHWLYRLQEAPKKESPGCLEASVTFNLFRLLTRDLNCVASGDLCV


Legend:
zcyto20 = molecular target: T1, zcyto20; assay: Inhibition of ligand-induced ISRE signaling by soluble receptors, 293 HEK cells overexpressing zcytor19, ligand zcyto20; type: cell-based; conditions: all three ligands together; soluble receptor 10 micrograms/ml
Excerpt: A signal transduction reporter assay can be used to show the inhibitor properties of zcytor19-Fc4 homodimeric and zcytor19-Fc/CRF2-4-Fc heterodimeric soluble receptors on zcyto20, zcyto21 and zcyto24 signaling. Human embryonal kidney (HEK) cells overexpressing the zcytor19 receptor are transfected with a reporter plasmid containing an interferon-stimulated response element (ISRE) driving transcription of a luciferase reporter gene. Luciferase activity following stimulation of transfected cells with ligands (including zcyto20 (SEQ ID NO:18), zcyto21 (SEQ ID NO:20), zcyto24 (SEQ ID NO:8)) reflects the interaction of the ligand with soluble receptor.
The results obtained are shown as the percent inhibition of ligand-induced signaling in the presence of soluble receptor relative to the signaling in the presence of PBS alone.

mouse OAS, Pkr and Mx1 = assay: ISG gene induction in liver, spleen and blood of C57BL/6 mice injected with protein (real-time PCR); type: in vivo; conditions: i.p. or i.v., 10 μg-250 μg, 1 hr-48 hr
Protocol: Mice were sacrificed at various time points (1 hr-48 hr). Spleens and livers were isolated from mice, and RNA was isolated. RNA was also isolated from the blood cells. The cells were pelleted and RNA isolated from pellets using RNAEasy®-kit (Qiagen). RNA was treated with DNase (Amicon) to rid RNA of any contaminating DNA. cDNA was generated using Perkin-Elmer RT mix (Perkin-Elmer). ISG gene induction was measured by real-time PCR using primers and probes specific for mouse OAS, Pkr and Mx1. To obtain quantitative data, HPRT real-time PCR was duplexed with ISG PCR. A standard curve was calculated using known amounts of IFN-stimulated mouse PBLs. All data are shown as expression relative to internal HPRT expression.
Results shown are fold expression relative to HPRT gene expression. […] The data shown is the average expression from 5 different animals/group.
Mice were injected with 100 μg of proteins i.v. Data shown is fold expression over HPRT expression from livers of mice. Similar data was obtained from blood and spleens of mice.

Mouse B cells = assay: 3H-thymidine incorporation by mouse B cells; type: cell-based
Protocol: Mouse B cells were isolated from 2 Balb/C spleens (7 months old) by depleting CD43+ cells using MACS magnetic beads. Purified B cells were cultured in vitro with LPS, anti-IgM or anti-CD40 monoclonal antibodies. Mouse IL-28 or mouse IFNα was added to the cultures and ^3H-thymidine was added at 48 hrs. and ^3H-thymidine incorporation was measured after 72 hrs. culture.

[1] = system: mouse OAS, Pkr and Mx1 in AML-12 cells; assay: ISG induction in the mouse liver cell line AML-12 (real-time PCR); type: cell-based; conditions: AML-12, 20 ng/ml, 48 hour time point
adenoviral vector, AdGFP = assay: Adenoviral vector (AdGFP) liver pathology model in C57Bl/6 mice; conditions: 50 μg i.p., 7 doses; H&E
OAS activity = OAS activity in serum and plasma of treated mice (OAS radioimmunoassay); type: in vivo, mouse; conditions: i.v., 10 μg-250 μg
Protocol: Serum and plasma were isolated from mice at varying time points, and OAS activity was measured using the OAS radioimmunoassay (RIA) kit from Eiken Chemicals (Tokyo, Japan).

Molecule | inhibition of zcyto20, zcyto21 and zcyto24-induced signaling (zcyto20) | ISG gene expression (OAS, Pkr, Mx1) in the livers, spleen and blood of mice (mouse OAS, Pkr and Mx1) | liver and inflammation scores (liver histology) versus the PBS-treated group (adenoviral vector, AdGFP) | other results
HuCRF2-4-Fc: human CRF2-4-Fc homodimeric soluble receptor | No significant effects | – | – | –
Muzcytor19-Ig: murine zcytor19-Ig homodimeric soluble receptor (protein, left off: a dimerising Fc or GST, murine zcytor19-Ig homodimeric soluble receptor) RPRLAPPRNVTLFSQNFTVYLTWLPGLGSPPNVTYFVTYQSYIKTGWRPVEHCAGIKALVCPLMCLKKLNLYSKFKGRVQAASAHGRSPRVESRYLEYLFDVELAPPTLVLTQMEKILRVNATYQLPPCMPSLELKYQVEFWKEGLGSKTLFPDTPYGQPVQIPLQQGASRRHCLSARTVYTLIDIKYSQFSEPSCIFLEAPGDKRA | No significant effects | – | – | –
IL-28A: human IL-28A cytokine polypeptide, previous designation zcyto20 (e.g. SEQ ID NO:18, CHO-derived) (protein, listed as Homo sapiens, SIGNAL (1)...(25)) MKLDMTGDCTPVLVLMAAVLTVTGAVPVARLHGALPDARGCHIAQFKSLSPQELQAFKRAKDALEESLLLKDCRCHSRLFPRTWDLRQLQVRERPMALEAELALTLKVLEATADTDPALVDVLDQPLHTLHHILSQFRACIQPQPTAGPRTRGRLHHWLYRLQEAPKKESPGCLEASVTFNLFRLLTRDLNCVASGDLCV | – | did not induce | – | –
Zcyto24: mouse IL-28 (zcyto24), SEQ ID NO:8 (protein, listed as Mus musculus) MKPETAGGHMLLLLLPLLLAAVLTRTQADPVPRATRLPVEAKDCHIAQFKSLSPKELQAFKKAKDAIEKRLLEKDLRCSSHLFPRAWDLKQLQVQERPKALQAEVALTLKVWENMTDSALATILGQPLHTLSHIHSQLQTCTQLQATAEPRSPSRRLSRWLHRLQEAQSKETPGCLEASVTSNLFRLLTRDLKCVANGDQCV | – | – | lower | 3H-thymidine incorporation (Mouse B cells; B cells stimulated with LPS or anti-IgM, IFNα 10 ng/ml, mouse IL-28 any concentration including 1000 ng/ml, 72 hrs): did not inhibit; 3H thymidine incorporation (Mouse B cells; B cells stimulated with anti-CD40 MAb): increased; Mx1 (expression relative to HPRT) [1]: 0.08; OAS (expression relative to HPRT) [1]: 0.04; PkR (expression relative to HPRT) [1]: 0.02
IL-29: human IL-29 cytokine polypeptide, previous designation zcyto21 (e.g. SEQ ID NO:20, CHO-derived) (protein, listed as Homo sapiens, SIGNAL (1)...(19)) MAAAWTVVLVTLVLGLAVAGPVPTSKPTTTGKGCHIGRFKSLSPQELASFKKARDALEESLKLKNWSCSSPVFPGNWDLRLLQVRERPVALEAELALTLKVLEAAAGPALEDVLDQPLHTLHHILSQLQACIQPQPTAGPRPRGRLHHWLHRLQEAPKKESAGCLEASVTFNLFRLLTRDLKYVADGNLCLRTSTHPEST | – | induced | lower | OAS activity in the serum and plasma of mice (OAS activity): induced
